# Earlier results in paper PMC7689933.
# Biological target: His15 (UniProt position 33, AAMKRHGLDNY)
# Experiment: NMR
# Conditions: not stated (presumably native, ligand-free lysozyme)
substance,measurement,value
Lysozyme C (hen egg white lysozyme) (Gallus gallus),pKa,5.35 ± 0.07
